According to IntAct's records for PubMed 18682223:

B1: DNA polymerase processivity factor (Human cytomegalovirus (strain AD169) (HHV-5)), P16790 (parent)
chain: MDRKTRLSEPPTLALRLKPYKTAIQQLRSVIRALKENTTVTFLPTPSLILQTVRSHCVSKITFNSSCLYITDKSFQPKTINNSTPLLGNFMYLTSSKDLTKFYVQDISDLSAKISMCAPDFNMEFSSACVHGQDIVRESENSAVHVDLDFGVVADLLKWIGPHTRVKRNVKKAPCPTGTVQILVHAGPPAIKFILTNGSELEFTANNRVSFHGVKNMRINVQLKNFYQTLLNCAVTKLPCTLRIVTEHDTLLYVASRNGLFAVENFLTEEPFQRGDPFDKNYVGNSGKSRGGGGGGGSLSSLANAGGLHDDGPGLDNDLMNEPMGLGGLGGGGGGGGKKHDRGGGGGSGTRKMSSGGGGGDHDHGLSSKEKYEQHKITSYLTSKGGSGGGGGGGGGGLDRNSGNYFNDAKEESDSEDSVTFEFVPNTKKQKCG
partner: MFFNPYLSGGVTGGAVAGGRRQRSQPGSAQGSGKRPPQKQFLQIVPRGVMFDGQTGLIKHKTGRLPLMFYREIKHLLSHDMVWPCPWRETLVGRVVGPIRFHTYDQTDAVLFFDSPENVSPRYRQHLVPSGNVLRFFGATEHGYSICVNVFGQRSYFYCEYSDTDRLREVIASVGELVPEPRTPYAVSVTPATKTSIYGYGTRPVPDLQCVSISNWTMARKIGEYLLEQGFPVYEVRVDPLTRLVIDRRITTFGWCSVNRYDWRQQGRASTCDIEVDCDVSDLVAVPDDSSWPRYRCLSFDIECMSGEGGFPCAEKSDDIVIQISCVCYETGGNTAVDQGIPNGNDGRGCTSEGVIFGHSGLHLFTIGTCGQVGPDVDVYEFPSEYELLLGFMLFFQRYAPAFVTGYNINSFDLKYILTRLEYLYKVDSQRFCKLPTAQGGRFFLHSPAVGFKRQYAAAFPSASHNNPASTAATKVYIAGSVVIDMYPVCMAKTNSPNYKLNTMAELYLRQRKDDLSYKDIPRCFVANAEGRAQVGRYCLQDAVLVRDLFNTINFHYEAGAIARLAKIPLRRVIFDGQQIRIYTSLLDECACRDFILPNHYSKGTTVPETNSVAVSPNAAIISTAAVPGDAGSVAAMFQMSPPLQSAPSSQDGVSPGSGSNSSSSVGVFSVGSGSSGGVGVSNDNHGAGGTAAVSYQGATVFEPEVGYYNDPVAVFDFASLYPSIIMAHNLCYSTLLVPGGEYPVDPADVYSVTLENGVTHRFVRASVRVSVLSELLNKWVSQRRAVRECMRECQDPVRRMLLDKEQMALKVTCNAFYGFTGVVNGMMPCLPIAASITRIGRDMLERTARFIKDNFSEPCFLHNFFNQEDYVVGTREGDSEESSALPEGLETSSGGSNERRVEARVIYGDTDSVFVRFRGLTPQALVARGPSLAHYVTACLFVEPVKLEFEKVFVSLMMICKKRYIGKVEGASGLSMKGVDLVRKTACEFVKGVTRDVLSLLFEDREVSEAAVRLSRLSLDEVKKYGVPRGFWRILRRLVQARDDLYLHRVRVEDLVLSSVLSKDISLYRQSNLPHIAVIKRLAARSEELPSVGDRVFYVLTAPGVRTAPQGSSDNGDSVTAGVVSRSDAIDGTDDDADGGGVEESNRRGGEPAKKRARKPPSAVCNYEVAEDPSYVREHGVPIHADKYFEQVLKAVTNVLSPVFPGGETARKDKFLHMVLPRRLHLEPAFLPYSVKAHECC

Variants of: B1
Conditions: with dpol_hcmva UL54, P08546

| Variant | effect of a mutation on the interaction |
| --- | --- |
| R165A;K167A;R168A;K171A;K172A | decreasing interaction |
| K35A;K158A;K224A;K237A | decreasing interaction |
